Assays:
cynomolgus monkey C2 = target: T1, cynomolgus monkey C2 (cynomolgus monkey, UniProt G8F3W0 21-752); assay: method not described; binding stated to be pH- and Ca2+-dependent; lower end of the printed range for cynomolgus C2; pH/Ca2+ condition not stated
T1 sequence: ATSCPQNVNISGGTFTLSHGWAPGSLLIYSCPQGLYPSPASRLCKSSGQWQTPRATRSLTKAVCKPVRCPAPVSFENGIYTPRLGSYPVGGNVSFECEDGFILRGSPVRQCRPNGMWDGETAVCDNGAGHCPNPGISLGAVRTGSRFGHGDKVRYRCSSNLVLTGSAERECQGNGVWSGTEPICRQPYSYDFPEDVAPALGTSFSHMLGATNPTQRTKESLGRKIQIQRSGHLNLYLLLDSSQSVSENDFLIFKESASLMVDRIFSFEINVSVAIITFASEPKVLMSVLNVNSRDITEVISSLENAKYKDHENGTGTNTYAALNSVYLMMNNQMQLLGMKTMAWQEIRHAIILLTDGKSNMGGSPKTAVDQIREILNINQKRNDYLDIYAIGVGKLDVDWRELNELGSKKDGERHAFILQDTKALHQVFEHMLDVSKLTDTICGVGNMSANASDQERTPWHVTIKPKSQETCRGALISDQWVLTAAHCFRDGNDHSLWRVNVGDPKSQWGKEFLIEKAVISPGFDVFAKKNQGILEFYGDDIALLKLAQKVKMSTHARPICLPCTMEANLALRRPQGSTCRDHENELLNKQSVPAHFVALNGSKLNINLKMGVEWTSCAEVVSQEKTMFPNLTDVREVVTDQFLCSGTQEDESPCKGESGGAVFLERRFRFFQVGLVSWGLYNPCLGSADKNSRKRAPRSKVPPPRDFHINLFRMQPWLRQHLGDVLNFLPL

[1] = target: T2, human complement component 2 (C2) (human, UniProt P06681 21-752, limits assumed); assay: method not described; binding stated to be pH- and Ca2+-dependent; lower end of the printed range for human C2; pH/Ca2+ condition not stated
T2 construct: also called human C2
T2 sequence (looked up): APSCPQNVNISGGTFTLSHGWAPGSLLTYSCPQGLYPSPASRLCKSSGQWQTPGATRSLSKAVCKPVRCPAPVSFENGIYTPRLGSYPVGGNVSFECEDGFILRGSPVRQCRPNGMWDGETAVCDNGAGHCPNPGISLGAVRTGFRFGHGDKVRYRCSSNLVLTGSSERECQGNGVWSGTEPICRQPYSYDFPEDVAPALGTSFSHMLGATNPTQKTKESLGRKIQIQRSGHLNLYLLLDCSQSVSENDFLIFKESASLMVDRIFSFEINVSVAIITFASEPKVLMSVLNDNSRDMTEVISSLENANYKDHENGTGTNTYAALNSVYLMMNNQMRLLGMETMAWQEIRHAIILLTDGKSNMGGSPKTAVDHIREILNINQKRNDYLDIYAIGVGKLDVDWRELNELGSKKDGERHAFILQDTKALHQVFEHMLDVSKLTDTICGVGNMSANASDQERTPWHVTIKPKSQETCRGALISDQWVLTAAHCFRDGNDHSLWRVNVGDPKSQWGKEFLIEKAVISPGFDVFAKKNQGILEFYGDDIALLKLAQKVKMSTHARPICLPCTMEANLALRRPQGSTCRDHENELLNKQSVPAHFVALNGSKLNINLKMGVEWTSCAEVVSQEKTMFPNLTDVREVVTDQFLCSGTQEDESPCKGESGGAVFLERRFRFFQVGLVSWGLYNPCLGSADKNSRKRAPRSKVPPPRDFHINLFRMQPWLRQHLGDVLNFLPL

C2 from mouse = target: T3, C2 from mouse (mouse, UniProt P21180 19-760, limits assumed); assay: not described
T3 sequence (looked up): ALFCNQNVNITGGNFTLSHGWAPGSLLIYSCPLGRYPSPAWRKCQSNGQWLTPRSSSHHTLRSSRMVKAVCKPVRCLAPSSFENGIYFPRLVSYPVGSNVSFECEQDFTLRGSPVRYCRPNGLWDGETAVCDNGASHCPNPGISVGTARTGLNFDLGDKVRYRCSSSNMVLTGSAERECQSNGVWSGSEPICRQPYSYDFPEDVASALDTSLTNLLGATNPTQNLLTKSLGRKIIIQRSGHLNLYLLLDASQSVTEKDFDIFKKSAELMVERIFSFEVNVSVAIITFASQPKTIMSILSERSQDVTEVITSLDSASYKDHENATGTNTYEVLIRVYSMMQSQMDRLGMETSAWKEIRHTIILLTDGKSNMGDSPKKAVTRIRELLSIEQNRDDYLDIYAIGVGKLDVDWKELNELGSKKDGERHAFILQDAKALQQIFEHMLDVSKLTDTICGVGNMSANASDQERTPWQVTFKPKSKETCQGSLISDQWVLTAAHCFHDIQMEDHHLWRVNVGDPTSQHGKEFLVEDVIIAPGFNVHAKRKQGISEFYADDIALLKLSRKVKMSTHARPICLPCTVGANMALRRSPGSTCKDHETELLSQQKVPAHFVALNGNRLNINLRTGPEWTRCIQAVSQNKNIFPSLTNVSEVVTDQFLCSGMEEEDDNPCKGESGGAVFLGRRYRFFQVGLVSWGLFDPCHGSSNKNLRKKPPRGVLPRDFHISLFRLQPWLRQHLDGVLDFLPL

C2 from rat = target: T4, C2 from rat (rat, UniProt Q8CIP8 19-758); assay: not described
T4 sequence: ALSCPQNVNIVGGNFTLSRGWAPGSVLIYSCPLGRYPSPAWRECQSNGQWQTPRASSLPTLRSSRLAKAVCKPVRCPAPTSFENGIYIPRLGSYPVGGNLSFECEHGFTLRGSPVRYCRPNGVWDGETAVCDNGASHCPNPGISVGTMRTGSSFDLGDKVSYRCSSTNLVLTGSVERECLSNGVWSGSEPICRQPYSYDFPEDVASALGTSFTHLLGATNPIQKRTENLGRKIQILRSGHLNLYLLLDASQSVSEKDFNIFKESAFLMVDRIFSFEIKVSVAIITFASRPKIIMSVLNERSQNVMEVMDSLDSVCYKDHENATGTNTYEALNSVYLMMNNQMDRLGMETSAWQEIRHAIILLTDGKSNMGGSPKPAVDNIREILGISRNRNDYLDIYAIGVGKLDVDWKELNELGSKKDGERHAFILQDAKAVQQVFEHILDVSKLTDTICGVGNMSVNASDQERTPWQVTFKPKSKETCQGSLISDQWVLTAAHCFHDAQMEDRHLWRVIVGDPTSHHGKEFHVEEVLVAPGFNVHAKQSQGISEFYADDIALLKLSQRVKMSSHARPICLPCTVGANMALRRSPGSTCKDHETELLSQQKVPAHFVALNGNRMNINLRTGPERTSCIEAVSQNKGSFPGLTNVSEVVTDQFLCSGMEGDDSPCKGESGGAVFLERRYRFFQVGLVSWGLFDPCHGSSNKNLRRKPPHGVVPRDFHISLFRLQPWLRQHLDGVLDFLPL

C2 from rabbit = target: T5, C2 from rabbit (rabbit, UniProt G1SS66 21-744); assay: not described
T5 sequence: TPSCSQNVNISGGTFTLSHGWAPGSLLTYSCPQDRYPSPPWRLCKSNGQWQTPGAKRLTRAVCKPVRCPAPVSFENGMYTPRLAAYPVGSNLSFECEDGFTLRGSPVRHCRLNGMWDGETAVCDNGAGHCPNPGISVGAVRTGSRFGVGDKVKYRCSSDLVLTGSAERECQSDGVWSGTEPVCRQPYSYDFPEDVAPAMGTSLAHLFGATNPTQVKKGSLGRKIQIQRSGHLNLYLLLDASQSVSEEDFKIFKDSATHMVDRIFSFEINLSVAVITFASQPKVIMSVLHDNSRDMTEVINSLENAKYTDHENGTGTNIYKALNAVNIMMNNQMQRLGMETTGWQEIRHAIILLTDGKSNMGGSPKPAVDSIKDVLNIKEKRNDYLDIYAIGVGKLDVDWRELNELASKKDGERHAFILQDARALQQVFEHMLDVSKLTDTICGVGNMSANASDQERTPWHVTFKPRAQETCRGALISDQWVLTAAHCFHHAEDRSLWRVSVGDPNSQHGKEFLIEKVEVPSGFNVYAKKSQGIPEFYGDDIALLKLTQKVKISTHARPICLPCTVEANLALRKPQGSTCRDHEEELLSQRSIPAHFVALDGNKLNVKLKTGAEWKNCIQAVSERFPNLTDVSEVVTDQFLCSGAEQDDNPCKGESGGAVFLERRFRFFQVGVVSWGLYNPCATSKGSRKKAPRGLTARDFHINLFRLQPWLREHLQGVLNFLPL

- Kd (cynomolgus monkey C2): 0.056 to 0.13 nM
- Kd [1]: 0.109 to 2.02 nM
- binding result (C2 from mouse): no binding
- binding result (C2 from rat): no binding
- binding result (C2 from rabbit): no binding
B1: ARGX-117 (antibody, human IgG1, kappa, L234A L235A, V domains shown)
VH: EVQLVQSGAEVKKPGASVKVSCKASGYTFTDYNMDWVRQATGQGLEWIGDINPNYESTGYNQKFKGRATMTVDKSISTAYMELSSLRSEDTAVYYCAREDDHDAFAYWGQGTLVTVSS
VL: DNVLTQSPDSLAVSLGERATISCRASKSVRTSGYNYMHWYQQKPGQPPKLLIYLASNLKSGVPDRFSGSGSGTDFTLTISSLQAEDAATYYCQHSRELPYTFGQGTKLEIKR
notes: also called anti-C2 antibody
